The results in this text go back to paper PMC3701577, “Characterization of DNA Binding Property of the HIV-1 Host Factor and Tumor Suppressor Protein Integrase Interactor 1 (INI1/hSNF5)”.

The target in data set [1] is INI1 DNA binding domain (INI1/hSNF5 amino acids 105-183) (human) (UniProt Q12824). In words: AUC; sedimentation equilibrium, 60 µM INI1 DBD (monomer concentration), 4°C, 13,000-28,000 rpm, 20 mM HEPES-KOH pH 7.2, 100 mM KCl, 5-7% glycerol, 1 mM DTT, absorbance at 280 nm; species analysis in SEDPHAT.
Data set [2] addresses INI1 DBD dimer, INI1(105-183) (human, UniProt Q12824 105-183). In words: ITC; 30 uM dimer, 325 uM DNA in syringe; sequential model, first binding event; ITC at 25 C (buffer not stated in material; protein dialyzed in 20 mM HEPES pH 7.2, 100 mM KCl, 10% glycerol, 0.1 mM EDTA, 1 mM DTT); pull-down in 20 mM HEPES pH 7.2, 100 mM KCl, 5% glycerol, 1 mM DTT, RT 30 min then ice. The settings on record: protein: recombinant; tags: His tag (pET28a), 24-aa N-terminal extension; chain copies: 2; 5' overhang 2 nt on strand 1 (AC). On the technique in general: ITC needs no label: the signal is the heat of the interaction.

The next data set has as its target INI1 DBD, INI1(105-183) (human, UniProt Q12824 105-183). Nature of the data set: ITC; 10 uM monomer, 55 uM DNA in syringe; one-site, N=0.49; ITC at 25 C (buffer not stated in material; protein dialyzed in 20 mM HEPES pH 7.2, 100 mM KCl, 10% glycerol, 0.1 mM EDTA, 1 mM DTT); pull-down in 20 mM HEPES pH 7.2, 100 mM KCl, 5% glycerol, 1 mM DTT, RT 30 min then ice. The settings on record: protein: recombinant; tags: His tag (pET28a), 24-aa N-terminal extension; 5' overhang 2 nt on strand 1 (AC).

In a further data set the target is T1, SNR1 DBD, SNR1(90-167) (Drosophila melanogaster, UniProt Q7K0F9 90-167).
T1 sequence: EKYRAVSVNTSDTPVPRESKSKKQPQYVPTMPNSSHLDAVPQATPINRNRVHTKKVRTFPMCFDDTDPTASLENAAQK
In words: Ni-NTA pull-down; 55 uM dimer, 110 uM DNA; ITC at 25 C (buffer not stated in material; protein dialyzed in 20 mM HEPES pH 7.2, 100 mM KCl, 10% glycerol, 0.1 mM EDTA, 1 mM DTT); pull-down in 20 mM HEPES pH 7.2, 100 mM KCl, 5% glycerol, 1 mM DTT, RT 30 min then ice. Particulars: protein: recombinant; tags: His tag (pET28a), 37-aa N-terminal extension; chain copies: 2; 5' overhang 2 nt on strand 1 (AC).

INI1 DBD, INI1(105-183), sequence (Q12824 105-183): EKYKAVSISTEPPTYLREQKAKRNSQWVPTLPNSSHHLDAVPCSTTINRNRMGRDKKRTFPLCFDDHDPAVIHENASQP
INI1 DBD dimer, INI1(105-183), sequence (Q12824 105-183): as above

On to “INI1 DNA binding domain (INI1/hSNF5 amino acids 105-183) (from UniProt Q12824 105-183) (domain or fragment)”, for which the stoichiometry N in data set [1] worked out at 2.

B1: U5 HIV-1 LTR DNA (U5.4/U5.5) (dsDNA)
DNA 1: ACTGCTAGAGATTTTCCGGATCC
DNA 2: GGATCCGGAAAATCTCTAGCA
As to B1, the Kd in data set [2] worked out at 222 ± 51.8 µM; in the data set with INI1 DBD, INI1(105-183), 0.94 ± 0.02 µM. Also, the binding result with SNR1 DBD, SNR1(90-167) is given as “binds”.

For orientation: stoichiometry N means a count of units in the complex or per binding partner. The term Kd denotes the free concentration of one partner at which half of the binding sites on the other are occupied at equilibrium, for simple one-to-one binding.
